Test results published in patent US20240010735A1 (EISAI R AND D MANAGEMENT, published 2024).

Assays:
Experiment in all cases: ELISA: Fc-His proteins (1 nM) captured on anti-6-His antibody, antibody A 10 µg/mL with human IgG 100 µg/mL, HRP anti-mouse IgG, OD450 as % of mouse EphA4-Fc-His
[1] = biological target: T1, mouse EphA2 extracellular region-Fc-His protein (mouse, UniProt Q03145 26-538)
T1 construct: extracellular domain; Cloned into a pcDNA 3.1 vector separately from the other mouse Eph receptors; not shown: Fc; histidine tag
T1 sequence (Q03145 26-538): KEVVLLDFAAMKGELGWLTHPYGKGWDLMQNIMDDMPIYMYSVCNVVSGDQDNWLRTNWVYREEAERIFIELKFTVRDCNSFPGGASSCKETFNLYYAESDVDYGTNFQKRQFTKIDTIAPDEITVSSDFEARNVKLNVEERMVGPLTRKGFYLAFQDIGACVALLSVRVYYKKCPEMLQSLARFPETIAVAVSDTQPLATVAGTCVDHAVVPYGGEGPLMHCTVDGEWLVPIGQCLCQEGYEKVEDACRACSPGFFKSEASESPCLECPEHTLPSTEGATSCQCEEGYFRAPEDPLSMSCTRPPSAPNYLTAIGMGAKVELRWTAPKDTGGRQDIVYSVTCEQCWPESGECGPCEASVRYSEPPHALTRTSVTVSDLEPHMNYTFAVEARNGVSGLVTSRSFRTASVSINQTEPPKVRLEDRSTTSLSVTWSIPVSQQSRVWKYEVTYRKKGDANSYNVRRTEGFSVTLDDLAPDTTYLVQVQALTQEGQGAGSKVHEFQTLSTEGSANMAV

[2] = biological target: T2, mouse EphA3 extracellular region-Fc-His protein (mouse; human, UniProt P29319 21-540)
T2 construct: extracellular domain; not shown: Fc region of human IgG1; histidine tag
T2 sequence (looked up): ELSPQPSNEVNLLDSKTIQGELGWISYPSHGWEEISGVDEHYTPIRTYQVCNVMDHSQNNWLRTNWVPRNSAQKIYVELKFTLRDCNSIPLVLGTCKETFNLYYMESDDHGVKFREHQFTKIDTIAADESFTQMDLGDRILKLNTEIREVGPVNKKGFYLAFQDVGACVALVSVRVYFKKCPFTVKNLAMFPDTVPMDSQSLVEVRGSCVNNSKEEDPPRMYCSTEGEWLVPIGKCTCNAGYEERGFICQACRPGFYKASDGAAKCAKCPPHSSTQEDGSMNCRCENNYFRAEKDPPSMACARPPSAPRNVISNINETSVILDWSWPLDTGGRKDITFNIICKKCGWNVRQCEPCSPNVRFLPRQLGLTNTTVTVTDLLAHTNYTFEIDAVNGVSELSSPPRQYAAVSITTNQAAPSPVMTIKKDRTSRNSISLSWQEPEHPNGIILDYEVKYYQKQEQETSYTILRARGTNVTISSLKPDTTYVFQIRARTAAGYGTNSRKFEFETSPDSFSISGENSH

[3] = biological target: T3, mouse EphA10 extracellular region-Fc-His protein (mouse; human, UniProt Q8BYG9 23-565)
T3 construct: extracellular domain; not shown: Fc region of human IgG1; histidine tag
T3 sequence (looked up): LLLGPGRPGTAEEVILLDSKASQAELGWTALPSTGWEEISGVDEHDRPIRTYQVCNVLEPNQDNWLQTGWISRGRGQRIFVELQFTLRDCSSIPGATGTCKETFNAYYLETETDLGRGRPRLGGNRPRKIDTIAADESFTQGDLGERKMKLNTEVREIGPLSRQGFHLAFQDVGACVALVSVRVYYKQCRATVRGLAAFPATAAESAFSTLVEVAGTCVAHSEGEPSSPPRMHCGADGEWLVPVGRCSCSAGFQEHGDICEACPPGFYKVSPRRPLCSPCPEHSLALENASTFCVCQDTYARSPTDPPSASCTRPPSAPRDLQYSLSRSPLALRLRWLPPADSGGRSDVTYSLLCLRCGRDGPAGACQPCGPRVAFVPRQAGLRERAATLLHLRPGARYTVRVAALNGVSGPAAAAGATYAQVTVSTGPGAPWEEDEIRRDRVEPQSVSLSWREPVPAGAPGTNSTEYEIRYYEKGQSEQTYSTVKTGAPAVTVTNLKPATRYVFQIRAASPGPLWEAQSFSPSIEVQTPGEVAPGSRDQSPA

Measured: binding result

B1: mouse anti-EphA4 monoclonal antibody (antibody A) (antibody, mouse IgG1, kappa, V domains shown)
VH: QVQLKQSGPSLVQPSQSLSITCTVSGFSLTRYGVHWVRQSPGKGLEWLGVIWRGGSTDYNAAFMSRLSITKDNSKSQVFFKMNSLQADDTAIYYCAKESLFGVYYDYGYYSMDYWGQGTSVTVSS
VL: DIQMTQSPSSLSASLGERVSLTCRASQEISGYLSWLQQKPDGTIKRLIYAASTLDSGVPKRFSGSRSGSDYSLTISSLESEDFADYYCLQYASYPLTFGAGTKLELKR
notes: purified from hybridoma supernatant
no binding (tested: 10 µg/mL): all assays above
